Assay results as given in patent US20180258163A1 (Chugai, published 2018).
Substitutions are numbered along the chain they refer to. Where two headings read alike, the source gives them in different places. Values belong to the binder of their own block, whether it stands above or below them.

Assays:
soluble human FcγRIIb [1] = target: T1, soluble human FcγRIIb (human, UniProt P31994 43-217, limits assumed); test: SPR, Ab-IgE complex over captured hFcγRIIb, pH 7.4, 25C
T1 construct: soluble His-tagged form; also called hFcγRIIb
T1 sequence (looked up): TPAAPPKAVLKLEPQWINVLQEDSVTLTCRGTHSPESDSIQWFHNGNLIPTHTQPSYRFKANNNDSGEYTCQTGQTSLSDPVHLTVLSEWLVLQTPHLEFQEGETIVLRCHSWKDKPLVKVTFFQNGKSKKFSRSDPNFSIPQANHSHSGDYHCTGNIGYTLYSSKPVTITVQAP
Experimental: (§1) Regarding the produced Fc region variant-containing antibodies, binding assays between soluble human FcγRIIb and antigen-antibody complexes were performed using BIACORE T200 (GE Healthcare). Soluble human FcγRIIb (NCBI accession NM_004001.3) was produced in the form of a His-tagged molecule by a method known in the art. An appropriate amount of an anti-His antibody was fixed onto Sensor chip CM5 (GE Healthcare) by the amine coupling method using a His capture kit (GE Healthcare) to capture human FcγRIIb. Next, an antibody-antigen complex and a running buffer (as a reference solution) were injected, and interaction was allowed to take place with the human FcγRIIb captured onto the sensor chip. 20 mM N-(2-Acetamido)-2-aminoethanesulfonic acid, 150 mM NaCl, 1.2 mM CaCl₂, and 0.05% (w/v) Tween 20 at pH 7.4 was used as the running buffer, and the respective buffer was also used to dilute the soluble human FcγRIIb. To regenerate the sensor chip, 10 mM glycine-HCl at pH 1.5 was used. All measurements were carried out at 25° C. Analyses were performed based on binding (RU) calculated from sensorgrams obtained by the measurements, and relative values when the binding amount of Ab1H/Ab1L (original Ab1) was defined as 1.00 are shown. To calculate the parameters, the BIACORE T100 Evaluation Software (GE Healthcare) was used.

soluble human FcγRIIb [2] = target: T1, soluble human FcγRIIb; test: as above; remark: listed apart in the source
Experimental: as §1

human IgE [3] = target: T2, human IgE (human, UniProt P01854-1 1-428); test: SPR, Ab captured, IgE analyte, pH 7.4, 25C
T2 construct: whole IgE; also called hIgE
T2 sequence (P01854 other isoform, or with tags, fused parts or gaps): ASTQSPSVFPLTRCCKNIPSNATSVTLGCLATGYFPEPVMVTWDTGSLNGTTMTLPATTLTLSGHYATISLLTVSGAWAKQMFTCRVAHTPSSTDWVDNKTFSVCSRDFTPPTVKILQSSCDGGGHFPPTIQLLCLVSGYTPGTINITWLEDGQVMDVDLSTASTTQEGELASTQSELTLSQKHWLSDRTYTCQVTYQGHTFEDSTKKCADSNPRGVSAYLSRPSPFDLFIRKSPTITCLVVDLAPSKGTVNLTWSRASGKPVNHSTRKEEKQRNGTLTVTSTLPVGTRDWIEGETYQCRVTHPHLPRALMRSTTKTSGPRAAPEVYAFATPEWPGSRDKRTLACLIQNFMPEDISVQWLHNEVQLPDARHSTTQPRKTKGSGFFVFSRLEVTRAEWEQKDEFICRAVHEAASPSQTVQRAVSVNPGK
Experimental: (§2) An appropriate amount of Protein A/G (ACTIGEN) was fixed onto Sensor chip CM4 (GE Healthcare) by the amine coupling method to capture the antibodies of interest. Next, human IgE was made to interact with the antibodies captured onto the sensor chip by injecting a diluted IgE solution and a running buffer (used as a reference solution). For the running buffer, either of the buffers (1) and (2) above was used, and human IgE was diluted using the respective buffer. To regenerate the sensor chip, 10 mM glycine-HCl at pH 1.5 was used. All measurements were carried out at 25° C. KD (M) for human IgE was calculated for each antibody based on the association rate constant ka (1/Ms) and dissociation rate constant kd (1/s), which are kinetic parameters calculated from the sensorgrams obtained by the measurements. The BIACORE T100 Evaluation Software (GE Healthcare) was used to calculate each parameter.

human IgE [4] = target: T2, human IgE; test: SPR, Ab captured, IgE analyte, pH 5.8, 25C
Experimental: as §2

soluble human FcγRIIb [5] = target: T1, soluble human FcγRIIb; test: SPR, Ab-IgE complex over captured hFcγRIIb, pH 7.4, 25C; remark: listed apart in the source
Experimental: as §1

human IL-8 [6] = target: T3, human IL-8 (human, UniProt P10145 23-99, limits assumed); test: SPR pH 7.4 40C; 50C 1 week in PBS against initial
T3 construct: also called hIL-8
T3 sequence: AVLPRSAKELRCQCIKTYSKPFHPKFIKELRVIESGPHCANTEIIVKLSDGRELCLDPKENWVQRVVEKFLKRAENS
Experimental: The levels of human IL-8 binding to the modified antibodies were analyzed using BIACORE T200 (GE Healthcare). Measurements were carried out at 40° C. by using 0.05% tween20, 40 mM ACES, and 150 mM NaCl at pH 7.4 as the running buffer.
An appropriate amount of Protein A/G (PIERCE) was immobilized onto the Sensor chip CM4 (GE Healthcare) by the amine coupling method and the antibodies of interest was captured. Next, a diluted human IL-8 solution or a running buffer (used as a reference solution) was injected to allow interaction of the antibodies captured onto the sensor chip with human IL-8. The running buffer was also used to dilute human IL-8. To regenerate the sensor chip, 25 mM NaOH and 10 mM glycine-HCl (pH 1.5) were used. The measured binding level of human IL-8 and the amount of antibodies captured at that binding level were extracted using the BIACORE T200 Evaluation Software (GE Healthcare).
The amount of human IL-8-binding per 1000 RU of the amount of antibody captured was calculated for the initial samples and the samples for the thermal acceleration test. Furthermore, the ratio of the human IL-8-binding level for the initial samples to that for samples of the thermal acceleration test was calculated.

[7] = target: T4, soluble cynomolgus monkey FcγRIIIa (cynomolgus monkey, UniProt Q8SPW2 17-208, limits assumed); test: SPR, Ab captured on Protein L, 20C
T4 construct: soluble His-tagged form; also called cynoFcγRIIIa
T4 sequence (Q8SPW2 17-208 limits assumed): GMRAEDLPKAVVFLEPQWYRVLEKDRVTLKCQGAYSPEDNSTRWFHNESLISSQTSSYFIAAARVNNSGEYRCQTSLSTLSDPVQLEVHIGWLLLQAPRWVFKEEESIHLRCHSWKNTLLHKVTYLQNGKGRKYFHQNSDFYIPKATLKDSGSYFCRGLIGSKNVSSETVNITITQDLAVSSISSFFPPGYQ
Experimental: (§3) Soluble FcγRIa and FcγRIIIa in both human and cynomolgus monkey were produced in the form of His-tagged molecules by methods known to those of ordinary skill in the art. An appropriate amount of rProtein L (BioVision) was immobilized onto the Sensor chip CM4 (GE Healthcare) by the amine coupling method and antibody of interest was captured. Next, soluble FcγRIa or FcγRIIIa was injected with a running buffer (used as a reference solution), and was made to interact with the antibodies captured onto the sensor chip. HBS-EP+ (GE Healthcare) was used as the running buffer, and HBS-EP+ was also used to dilute the soluble FcγRIa or FcγRIIIa. To regenerate the sensor chip, 10 mM glycine-HCl at pH 1.5 was used. All measurements were carried out at 20° C.

soluble human FcγRIa = target: T5, soluble human FcγRIa (human, UniProt P12314 16-292, limits assumed); test: SPR, Ab captured on Protein L, 20C
T5 construct: soluble His-tagged form; also called hFcγRIa
T5 sequence (P12314 16-292 limits assumed): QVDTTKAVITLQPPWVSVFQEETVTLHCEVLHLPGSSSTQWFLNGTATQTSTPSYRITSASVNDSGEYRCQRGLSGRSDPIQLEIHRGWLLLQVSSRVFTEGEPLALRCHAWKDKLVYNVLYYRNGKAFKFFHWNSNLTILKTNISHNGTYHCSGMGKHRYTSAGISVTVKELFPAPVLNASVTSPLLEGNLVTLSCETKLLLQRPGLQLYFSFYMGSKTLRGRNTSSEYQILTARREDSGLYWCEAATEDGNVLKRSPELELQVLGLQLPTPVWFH
Experimental: as §3

soluble human FcγRIIIa = target: T6, soluble human FcγRIIIa (human, UniProt P08637 17-208, limits assumed); test: SPR, Ab captured on Protein L, 20C
T6 construct: soluble His-tagged form; also called hFcγRIIIa
T6 sequence (P08637 17-208 limits assumed): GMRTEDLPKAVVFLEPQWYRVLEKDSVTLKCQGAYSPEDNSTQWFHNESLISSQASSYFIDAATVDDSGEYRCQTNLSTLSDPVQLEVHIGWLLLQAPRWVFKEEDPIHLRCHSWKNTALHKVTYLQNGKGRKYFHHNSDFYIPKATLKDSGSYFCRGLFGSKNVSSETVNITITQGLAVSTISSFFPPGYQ
Experimental: as §3

human IL-8 [8] = target: T3, human IL-8; test: SPR pH 7.4 40C
Experimental: (§4) The following two running buffers were used, and measurements were carried out at the respective temperatures: (1) 0.05% tween20, 40 mM ACES, 150 mM NaCl, pH 7.4, 40° C.: and (2) 0.05% tween20, 40 mM ACES, 150 mM NaCl, pH 5.8, 37° C.
(§5) An appropriate amount of Protein A/G (PIERCE) was immobilized onto the Sensor chip CM4 (GE Healthcare) by the amine coupling method and the antibodies of interest were captured. Next, a diluted human IL-8 solution or a running buffer (used as a reference solution) was injected to allow interaction of the antibodies captured onto the sensor chip with human IL-8. For the running buffer, either one of the above-mentioned solutions was used, and the respective buffers were also used to dilute human IL-8. To regenerate the sensor chip, 25 mM NaOH and 10 mM glycine-HCl (pH 1.5) were used. KD (M) of each antibody for human IL-8 was calculated based on the association rate constant kon (1/Ms) and dissociation rate constant koff (1/s) which are kinetic parameters calculated from sensorgrams obtained by the measurements. The BIACORE T200 Evaluation Software (GE Healthcare) was used to calculate each parameter.

human IL-8 [9] = target: T3, human IL-8; test: SPR pH 5.8 37C
Experimental: as §4, §5

BIACORE fold (relative binding, original Ab1=1.00) (soluble human FcγRIIb [1]): 1 fold
BIACORE fold (relative binding, original Ab1=1.00) (soluble human FcγRIIb [2]): 1 fold
Kd (human IgE [3]): 2.3 nM
koff (human IgE [3]): 0.006 s⁻¹
kon (human IgE [3]): 2.7e+06 M⁻¹ s⁻¹
Kd (human IgE [4]): 2400 nM
koff (human IgE [4]): 0.039 s⁻¹
kon (human IgE [4]): 16000 M⁻¹ s⁻¹
BIACORE fold (relative binding, original Ab1=1.00) (soluble human FcγRIIb [5]): 1 fold
B1: Ab1 (antibody, human IgG1, kappa)
heavy: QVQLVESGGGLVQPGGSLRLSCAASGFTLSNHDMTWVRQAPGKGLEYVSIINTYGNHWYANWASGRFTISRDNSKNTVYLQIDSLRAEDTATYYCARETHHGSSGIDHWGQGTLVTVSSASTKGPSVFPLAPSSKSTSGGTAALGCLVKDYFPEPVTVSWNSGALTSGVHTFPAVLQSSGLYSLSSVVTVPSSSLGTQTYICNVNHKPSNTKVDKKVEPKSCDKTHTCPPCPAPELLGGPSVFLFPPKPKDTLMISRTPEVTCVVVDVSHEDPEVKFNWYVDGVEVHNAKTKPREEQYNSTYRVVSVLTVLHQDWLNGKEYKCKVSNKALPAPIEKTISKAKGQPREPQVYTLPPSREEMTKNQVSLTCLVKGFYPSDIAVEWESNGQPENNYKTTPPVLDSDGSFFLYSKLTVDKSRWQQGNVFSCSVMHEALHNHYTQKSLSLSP
light: DIQMTQSPSSVSASVGDRVTITCQASESIYSGLAWYQQKPGQPPKLLIYDHSTLASGVPSRFSGSGSGTEYALTISSLQPEDFATYYCQHADYAHHSDNVFGGGTKVEIKRTVAAPSVFIFPPSDEQLKSGTASVVCLLNNFYPREAKVQWKVDNALQSGNSQESVTEQDSKDSTYSLSSTLTLSKADYEKHKVYACEVTHQGLSSPVTKSFNRGEC
notes: also called Ab1H/Ab1L; original Ab1; copies: 2 + 2

binding result [7]: no binding
binding result (soluble human FcγRIa): no binding
binding result (soluble human FcγRIIIa): no binding
B4: H1009/L395-F1974m (antibody)
heavy: QVQLVESGGGLVQPGGSLRLSCAASGFTFSDYYLSWVRQAPGKGLEWVGLIRNKDNYHTPEYSASVKGRFTISRDDSKNSLYLTMSDLKTEDTAVYYCARENHRYDVELAYWGQGTLVTVSSASTKGPSVFPLAPSSKSTSGGTAALGCLVKDYFPEPVTVSWNSGALTSGVHTFPAVLQSSGLYSLSSVVTVPSSSLGTQTYICNVNHKPSNTKVDKKVEPKSCDKTHTCPPCPAPELRRGPSVFLFPPKPKDTLMISRTPEVTCVVVDVSHEDPEVKFNWYVDGVEVHNAKTKPREEQYNSTYRVVSVLTVLHQDWLNGKEYKCKVSNKGLPSSIEKTISKAKGQPREPQVYTLPPSREEMTKNQVSLTCLVKGFYPSDIAVEWESNGQPENNYKTTPPVLDSDGSFFLYSKLTVDKSRWQQGNVFSCSVLHEALHAHTTRKELSLSP
light: DIQMTQSPSSLSASVGDRVTITCRASEIIYSYLAWYQQKPGKAPKLLIYKAKTHADGVPSRFSGSGSGTDFTFTISSLQPEDIATYYCKHHFGFPRTFGQGTKVEIKRTVAAPSVFIFPPSDEQLKSGTASVVCLLNNFYPREAKVQWKVDNALQSGNSQESVTEQDSKDSTYSLSSTLTLSKADYEKHKVYACEVTHQGLSSPVTKSFNRGEC
notes: copies: 2 + 2

Kd (human IL-8 [8]): 0.12 nM
Kd (human IL-8 [9]): 7100 nM
koff (human IL-8 [9]): 0.017 s⁻¹
B5: H1023/L0442 (antibody, human IgG1, kappa, name in Kabat numbering, V domains shown)
VH: QVQLVESGGGLVQPGGSLRLSCAASGFTFSDYYLSWVRQAPGKGLEWVGLIRNKDNGYHPEYSASVKGRFTISRDDSKNSLYLTMSDLKTEDTAVYYCARENHRYDVELAYWGQGTLVTVSS
VL: DIQMTQSPSSLSASVGDRVTITCRASEIIYEYLAWYQQKPGKAPKLLIYKAKTHADGVPSRFSGSGSGTDFTFTISSLQPEDIATYYCKHHFGFPRTFGQGTKVEIKR

Ratio of IL-8 Amount (Thermal Acceleration/Initial) (human IL-8 [6]): 0.49
B7: H1040/L0442 (antibody, human IgG1, kappa, name in Kabat numbering, V domains shown)
VH: B5 VH with D31E, G57H, Y58H
VL: B5 VL

The remaining lines, values behind:

B2: H1009/L395 (antibody, human IgG1, kappa)
heavy: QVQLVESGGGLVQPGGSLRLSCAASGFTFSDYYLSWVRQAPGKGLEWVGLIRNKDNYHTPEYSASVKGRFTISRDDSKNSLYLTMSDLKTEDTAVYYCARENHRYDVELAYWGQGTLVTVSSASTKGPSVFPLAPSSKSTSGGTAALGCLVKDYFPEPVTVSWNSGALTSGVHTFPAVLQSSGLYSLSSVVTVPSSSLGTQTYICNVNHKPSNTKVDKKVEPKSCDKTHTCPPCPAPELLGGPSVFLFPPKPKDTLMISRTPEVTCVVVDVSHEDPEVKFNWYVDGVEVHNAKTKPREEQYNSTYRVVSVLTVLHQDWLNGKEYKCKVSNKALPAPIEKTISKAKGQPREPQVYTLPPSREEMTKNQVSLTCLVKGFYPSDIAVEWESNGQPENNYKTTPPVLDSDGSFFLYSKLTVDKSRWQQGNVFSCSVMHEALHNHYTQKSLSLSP
light: B4 light
notes: also called H1009/L0395; H1009/L395-IgG1
Ratio of IL-8 Amount (Thermal Acceleration/Initial) (human IL-8 [6]): 0.64

B3: H1009/L395-F1886s (antibody)
heavy: B4 heavy with S244K, G332A, S335A, S336P
light: B4 light
notes: copies: 2 + 2
binding result [7]: no binding
binding result (soluble human FcγRIa): no binding
binding result (soluble human FcγRIIIa): no binding

B6: H1023/L0395 (antibody, human IgG1, kappa, name in Kabat numbering, V domains shown)
VH: B5 VH
VL: B5 VL with E31S
Kd (human IL-8 [8]): 0.076 nM
Kd (human IL-8 [9]): 92 nM
koff (human IL-8 [9]): 0.018 s⁻¹
